The text below walks through data of patent US20140256626A1, “PEG CONJUGATES OF EXENATIDE” (priority 2011, published 2014).

This experiment has as its target human GLP-1 receptor (human) (UniProt P43220). As to the kind of experiment: cell-based or functional assay.

Sequence of human GLP-1 receptor (human) (P43220 24-463 limits assumed): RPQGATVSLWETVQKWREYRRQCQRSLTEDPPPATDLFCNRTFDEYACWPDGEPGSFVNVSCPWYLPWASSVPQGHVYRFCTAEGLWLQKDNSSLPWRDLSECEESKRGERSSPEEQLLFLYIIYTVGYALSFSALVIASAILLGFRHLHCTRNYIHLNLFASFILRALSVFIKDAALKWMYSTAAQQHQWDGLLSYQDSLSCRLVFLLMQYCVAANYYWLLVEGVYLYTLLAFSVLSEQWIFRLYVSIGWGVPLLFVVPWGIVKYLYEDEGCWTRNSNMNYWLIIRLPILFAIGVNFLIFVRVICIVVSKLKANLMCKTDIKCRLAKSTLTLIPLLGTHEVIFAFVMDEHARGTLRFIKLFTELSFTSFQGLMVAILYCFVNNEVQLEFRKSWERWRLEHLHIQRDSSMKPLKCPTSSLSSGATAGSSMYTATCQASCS

As for Exenatide (exendin-4) (peptide), the EC50 (DiscoveRx GLP1R cAMP Hunter assay) is 66 pM.

As to “Stably-linked N-[6-azidohexyloxy]-exenatide conjugate of Example 5 (non-releasable control conjugate, R1 = absent, conjugated to DBCO-Lys(DEAC)-[GL4-400] 40 kDa four-branched PEG) (peptide)”, the EC50 (DiscoveRx GLP1R cAMP Hunter assay) is > 100000 pM and the fold decrease of biological activity against free exenatide is > 10000 fold.
